Data as given in patent publication US20130273020A1, “ANTIFUNGAL COMPOSITION” (COMVITA NEW ZEALAND LIMITED, priority 2010, published 2013).

Key:
Type in all cases: cell-based
[1] = tested on: Candida albicans; test: Candida albicans growth by optical density, every 2 hrs up to 24 hrs (Example 1); conditions: single component alone, FIGS. 1 and 2
Experimental: In this example, a manuka honey was mixed with lactoferrin at varying concentrations and the degree of Candida albicans growth was measured and compared to each of the individual components alone. Samples of honey alone being a manuka honey with a UMF rating of ˜15 were collected. The honey was diluted with distilled water to honey concentrations of 12.5, 11.25, 10, 8.75, 7.5 and 0% (w/v). Samples of lactoferrin alone were also collected and similarly diluted with distilled water to concentrations of 5 mg/mL (5%), 4.5 mg/mL (4.5%), 4 mg/mL (4%), 3.5 mg/mL (3.5%), 3 mg/mL (3%) and 0% (w/v). Mixed samples were then produced using honey concentrations of 12.5, 11.25, 10, 8.75, 7.5 and 0% (w/v) along with lactoferrin at a concentration of 5 mg/mL of lactoferrin. Four replications were completed for each of the samples. Microbial growth for each of the samples was then measured every 2 hrs continuously for up to 24 hrs, determined by measuring the optical density of the mixture.

[2] = tested on: Candida albicans; test: Candida albicans growth curves at 28° C. by absorbance (540 nm), percentage inhibition vs media alone (Examples 2 and 3); conditions: lactoferrin used in isolation, 0.2% and 0.6% w/v; FIG. 5
Experimental: A further experiment was completed measuring the growth curves of Candida albicans grown at 28° C. measured by absorbance (540 nm). […] Catalase was added to remove any confounding effects from hydrogen peroxide. As may be appreciated, the peroxide effect can vary between and within honeys giving rise to poor results that are difficult to interpret. Removal of the peroxide effect gives clearer result. It should be noted that a lower growth temperature than usual was used to prevent filamentous growth, which is an artifact of these Candida assays. The results found were clean easily measurable results and were verified under a microscope to be accurate. A further experiment was completed measuring the percentage inhibition expressed as a proportion of Candida albicans growth in media alone. […] Catalase was added to remove the peroxide effect noted above.

[3] = tested on: Candida albicans; test: Candida albicans broth microtitre plate growth assay, absorbance at 650 nm, 28° C. (Example 4); conditions: honey alone (10% w/v, catalase) or lactoferrin alone (2.5-10 mg/ml); FIG. 6
Experimental: A further set of Candida albicans repeat trials were completed where the growth of Candida albicans cultures in broth was measured when subjected to a 10% w/v manuka honey with catalase and lactoferrin treatments ranging from 2.5-10 mg/ml. To prevent filamentous growth, the assay temperature was 28° C. as used previously. The assay was a broth microtitre plate set-up. Growth was measured by absorbance at 650 nm. Catalase was added to remove the peroxide effect noted above.

B1: lactoferrin (protein, UniProt P02788 20-710, looked up)
Lactotransferrin: GRRRSVQWCAVSQPEATKCFQWQRNMRKVRGPPVSCIKRDSPIQCIQAIAENRADAVTLDGGFIYEAGLAPYKLRPVAAEVYGTERQPRTHYYAVAVVKKGGSFQLNELQGLKSCHTGLRRTAGWNVPIGTLRPFLNWTGPPEPIEAAVARFFSASCVPGADKGQFPNLCRLCAGTGENKCAFSSQEPYFSYSGAFKCLRDGAGDVAFIRESTVFEDLSDEAERDEYELLCPDNTRKPVDKFKDCHLARVPSHAVVARSVNGKEDAIWNLLRQAQEKFGKDKSPKFQLFGSPSGQKDLLFKDSAIGFSRVPPRIDSGLYLGSGYFTAIQNLRKSEEEVAARRARVVWCAVGEQELRKCNQWSGLSEGSVTCSSASTTEDCIALVLKGEADAMSLDGGYVYTAGKCGLVPVLAENYKSQQSSDPDPNCVDRPVEGYLAVAVVRRSDTSLTWNSVKGKKSCHTAVDRTAGWNIPMGLLFNQTGSCKFDEYFSQSCAPGSDPRSNLCALCIGDEQGENKCVPNSNERYYGYTGAFRCLAENAGDVAFVKDVTVLQNTDGNNNEAWAKDLKLADFALLCLDGKRKPVTEARSCHLAMAPNHAVVSRMDKVERLKQVLLHQQAKFGRNGSDCPDKFCLFQSETKNLLFNDNTECLARLHGKTTYEKYLGPQYVAGITNLKKCSTSPLLEACEFLRK
notes: metal chelator that scavenges free transition metal ions, specifically iron
difference to controls without honey or lactoferrin after 24 hours ([1]; after 24 hours): little difference | degree of inhibition of microbial growth ([1]; honey 7.5-12.5% (w/v) or lactoferrin 3-5 mg/mL): relatively low | percentage inhibition as a proportion of growth in media alone [2]: negligible effects | inhibition of growth [3]: minimal inhibition
